According to patent publication US20090028872A1 (Bristol-Myers Squibb, published 2009):

Experiments:
[1] = target: T1, human CD70 expressed on the cell surface (human, UniProt P32970 1-193); experiment: cell-based or functional assay
T1 sequence (looked up): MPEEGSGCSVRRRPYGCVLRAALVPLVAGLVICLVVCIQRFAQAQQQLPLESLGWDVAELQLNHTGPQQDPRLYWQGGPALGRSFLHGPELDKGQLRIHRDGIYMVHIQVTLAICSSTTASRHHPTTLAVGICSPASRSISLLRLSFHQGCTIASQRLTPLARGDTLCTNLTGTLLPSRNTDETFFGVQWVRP

[2] = target: T1, human CD70 expressed on the cell surface; experiment: flow cytometry titration on A498 cells, PE anti-human IgG
Procedure: Binding of the anti-CD70 human monoclonal antibodies was assessed by incubating 5×10⁵ cells with antibody at a starting concentration of 50 μg/ml and serially diluting the antibody at a 1:3 dilution. The cells were washed and binding was detected with a PE-labeled anti-human IgG Ab. Flow cytometric analyses were performed using a FACSCalibur flow cytometry (Becton Dickinson, San Jose, Calif.).

[3] = target: human CD16 on effector cells (human, UniProt P08637 17-254); experiment: cell-based or functional assay
Sequence of human CD16 on effector cells (P08637 17-254): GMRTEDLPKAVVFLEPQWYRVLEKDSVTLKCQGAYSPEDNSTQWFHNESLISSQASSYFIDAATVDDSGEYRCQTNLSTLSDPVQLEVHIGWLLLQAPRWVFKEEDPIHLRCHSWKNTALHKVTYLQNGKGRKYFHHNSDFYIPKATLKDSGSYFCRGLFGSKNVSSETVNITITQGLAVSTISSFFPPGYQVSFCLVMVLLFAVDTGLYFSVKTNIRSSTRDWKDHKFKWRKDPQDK

B1: anti-CD70 human monoclonal antibody 2H5 (antibody, V domains shown)
VH: QVQLVESGGGVVQPGRSLRLSCAASGFTFSSYIMHWVRQAPGKGLEWVAVISYDGRNKYYADSVKGRFTISRDNSKNTLYLQMNSLRAEDTAVYYCARDTDGYDFDYWGQGTLVTVSS
VL: EIVLTQSPATLSLSPGERATLSCRASQSVSSYLAWYQQKPGQAPRLLIYDASNRATGIPARFSGSGSGTDFTLTISSLEPEDFAVYYCQQRTNWPLTFGGGTKVEIK
notes: Fully human IgG with kappa light chain, from a hybridoma; human IgG1 isotype controls were used; also called HuMAb 2H5
For B1, the “EC50 of decrease in ^3H-thymidine incorporation, Hum-Zap internalization assay, 786-O cells” value [1] was 0.942 nM and the “EC50 (read off the curve)” value [2] was about 7 nM.

B2: non-fucosylated anti-CD70 human monoclonal antibody 2H5 (antibody, V domains shown)
VH: B1 VH
VL: B1 VL
modifications: antibody lacking in fucosyl residues (expressed in FUT8-deficient CHO cell line Ms704-PF)
With B2 the “amount of anti-CD16 3G8 needed to reverse inhibition, 2H5NF against 2H5” value [3] was about 1000 fold.
